To fix the notation:
B1: Ribonuclease, P00648 (parent)
chain: MMKMEGIALKKRLSWISVCLLVLVSAAGMLFSTAAKTETSSHKAHTEAQVINTFDGVADYLQTYHKLPDNYITKSEAQALGWVASKGNLADVAPGKSIGGDIFSNREGKLPGKSGRTWREADINYTSGFRNSDRILYSSDWLIYKTTDHYQTFTKIR

Variants of B1 are the subject of the data set. The following applies: Bacillus amyloliquefaciens; pH 6.3; 25 °C; Urea; Fluorescence; MES 450 mM; reversible: yes; structure 1BNI; whole UniProt chain shown.

For A79K, the “ddG of mutation (higher = less stable)” value was found to be 0.1 kcal/mol, the denaturant m value came out at 1.94 kcal/mol/M, the “denaturant midpoint (higher = more stable)” value (shortened to “denaturant midpoint”) is 4.5 M and the unfolding free energy was 8.73 kcal/mol.

For A79S, the “ddG of mutation (higher = less stable)” value worked out at 0.16 kcal/mol, the denaturant m value was determined as 1.98 kcal/mol/M, the “denaturant midpoint” value was 4.3 M and the unfolding free energy was found to be 8.67 kcal/mol.

As to A79G, the “ddG of mutation (higher = less stable)” value came out at 0.65 kcal/mol, the denaturant m value worked out at 1.98 kcal/mol/M, the “denaturant midpoint” value is 4.1 M and the unfolding free energy amounted to 8.18 kcal/mol.

Take A79W: the “ddG of mutation (higher = less stable)” value worked out at 1.14 kcal/mol, the denaturant m value came out at 1.88 kcal/mol/M, the “denaturant midpoint” value turned out to be 4 M and the unfolding free energy came to 7.69 kcal/mol.

As for A79E, the “ddG of mutation (higher = less stable)” value is -0.13 kcal/mol, the denaturant m value came to 2.08 kcal/mol/M, the “denaturant midpoint” value worked out at 4.3 M and the unfolding free energy was found to be 8.96 kcal/mol.

As to A79D, the “ddG of mutation (higher = less stable)” value turned out to be 0.41 kcal/mol, the denaturant m value worked out at 1.99 kcal/mol/M, the “denaturant midpoint” value was determined as 4.2 M and the unfolding free energy worked out at 8.42 kcal/mol.

A79P: the “ddG of mutation (higher = less stable)” value was 4.12 kcal/mol, the denaturant m value came out at 1.89 kcal/mol/M, the “denaturant midpoint” value was 2.4 M and the unfolding free energy came to 4.71 kcal/mol.

Turning to A79L, the “ddG of mutation (higher = less stable)” value was -0.08 kcal/mol, the denaturant m value was found to be 2.02 kcal/mol/M, the “denaturant midpoint” value was found to be 4.4 M and the unfolding free energy came to 8.91 kcal/mol.

For A79C, the “ddG of mutation (higher = less stable)” value worked out at 1.85 kcal/mol, the denaturant m value was 1.71 kcal/mol/M, the “denaturant midpoint” value was found to be 4 M and the unfolding free energy stood at 6.98 kcal/mol.

Take A79Q: the “ddG of mutation (higher = less stable)” value was determined as 0.35 kcal/mol, the denaturant m value stood at 1.95 kcal/mol/M, the “denaturant midpoint” value was 4.3 M and the unfolding free energy came to 8.48 kcal/mol.

For the variant A79F, the “ddG of mutation (higher = less stable)” value is 0.43 kcal/mol, the denaturant m value came to 1.98 kcal/mol/M, the “denaturant midpoint” value amounted to 4.2 M and the unfolding free energy came out at 8.4 kcal/mol.

As for A79Y, the “ddG of mutation (higher = less stable)” value stood at 0.7 kcal/mol, the denaturant m value came out at 1.95 kcal/mol/M, the “denaturant midpoint” value came out at 4.1 M and the unfolding free energy came out at 8.13 kcal/mol.

On to A79M, for which the “ddG of mutation (higher = less stable)” value stood at 0.08 kcal/mol, the denaturant m value amounted to 1.97 kcal/mol/M, the “denaturant midpoint” value came to 4.4 M and the unfolding free energy is 8.75 kcal/mol.

A79R: the “ddG of mutation (higher = less stable)” value amounted to 0.2 kcal/mol, the denaturant m value was determined as 1.91 kcal/mol/M, the “denaturant midpoint” value was determined as 4.5 M and the unfolding free energy was 8.63 kcal/mol.

For A79V, the “ddG of mutation (higher = less stable)” value worked out at 0.34 kcal/mol, the denaturant m value was determined as 2.05 kcal/mol/M, the “denaturant midpoint” value worked out at 4.1 M and the unfolding free energy came to 8.49 kcal/mol.

In the case of A79N, the “ddG of mutation (higher = less stable)” value turned out to be 0.33 kcal/mol, the denaturant m value is 2 kcal/mol/M, the “denaturant midpoint” value was determined as 4.2 M and the unfolding free energy amounted to 8.5 kcal/mol.

Regarding A79H, the “ddG of mutation (higher = less stable)” value amounted to 0.7 kcal/mol, the denaturant m value was 1.94 kcal/mol/M, the “denaturant midpoint” value was found to be 4.1 M and the unfolding free energy was found to be 8.13 kcal/mol.

The values are drawn from FireProtDB (doi:10.1016/0022-2836(92)90907-2).
